According to patent US20250339466A1 (published 2025):
Numbering of substitutions follows the chain as printed.

T1: human BCMA on BCMA overexpressing CHO cells (human, UniProt Q02223 1-184)
T1 construct: also called hBCMA CHO; Hu BCMA (FACS)
T1 chain: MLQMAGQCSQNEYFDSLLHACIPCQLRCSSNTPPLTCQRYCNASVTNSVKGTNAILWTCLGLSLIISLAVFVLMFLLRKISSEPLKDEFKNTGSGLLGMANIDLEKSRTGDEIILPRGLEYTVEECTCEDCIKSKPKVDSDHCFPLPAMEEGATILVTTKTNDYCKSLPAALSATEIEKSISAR

B1: anti-BCMA scFv clone from phage display, periplasmic extract (Table 3, first row; VH printed there as SEQ ID NO: 26, VL as SEQ ID NO: 23) (scFv, V domains shown, part only)
VH: QITLRESGGDVVQPGRSLRLSCAASGFTFSSYAIHWVRQAPGKGLEWVAVTWHDGSNKYYAESVMGRFTISRDNSKNTLYLHMNSLRAEDTGVYYCARAKFGEPQYFQHWGQGTLVTVSS
VL: DIVMTQSPSFLSASVGDRVTITCRASQGISSYLAWYQQKPGKAPKLLIYAASTLQSGVPSRFSGSGSGTEFTLTISSLQPEDFATYYCQQLNSYPWTFGQGTKVDIK
modifications: linker not stated
B2: anti-BCMA scFv clone from phage display, periplasmic extract (Table 3, third row; VH printed there as SEQ ID NO: 10, VL as SEQ ID NO: 27) (scFv, V domains shown, part only)
VH: B1 VH with Q1E, I2V, T3Q, R5V, L115T
VL: B1 VL with W96F, Q100P
modifications: linker not stated
B3: anti-BCMA scFv clone from phage display, periplasmic extract (Table 3, second row; VH printed there as SEQ ID NO: 26, VL as SEQ ID NO: 25) (scFv, V domains shown, part only)
VH: B1 VH
VL: B1 VL with S30N, S31N, K42I, S63G, N92K, W96F, Q100P, D105E
modifications: linker not stated
B4: anti-BCMA scFv clone from phage display, periplasmic extract (Table 3, third row; VH printed there as SEQ ID NO: 10, VL as SEQ ID NO: 27) (scFv)
chain: EVQLVESGGDVVQPGRSLRLSCAASGFTFSSYAIHWVRQAPGKGLEWVAVTWHDGSNKYYAESVMGRFTISRDNSKNTLYLHMNSLRAEDTGVYYCARAKFGEPQYFQHWGQGTTVTVSSDIVMTQSPSFLSASVGDRVTITCRASQGISSYLAWYQQKPGKAPKLLIYAASTLQSGVPSRFSGSGSGTEFTLTISSLQPEDFATYYCQQLNSYPFTFGPGTKVDIK
B5: anti-BCMA scFv clone from phage display, periplasmic extract (Table 3, first row; VH printed there as SEQ ID NO: 26, VL as SEQ ID NO: 23) (scFv)
chain: B4 chain with E1Q, V2I, Q3T, V5R, T115L, F216W, P220Q
B6: anti-BCMA scFv clone from phage display, periplasmic extract (Table 3, second row; VH printed there as SEQ ID NO: 26, VL as SEQ ID NO: 25) (scFv)
chain: QITLRESGGDVVQPGRSLRLSCAASGFTFSSYAIHWVRQAPGKGLEWVAVTWHDGSNKYYAESVMGRFTISRDNSKNTLYLHMNSLRAEDTGVYYCARAKFGEPQYFQHWGQGTLVTVSSDIVMTQSPSFLSASVGDRVTITCRASQGINNYLAWYQQKPGIAPKLLIYAASTLQSGVPSRFGGSGSGTEFTLTISSLQPEDFATYYCQQLKSYPFTFGPGTKVEIK

Biological target: Bio-huBCMA-His (biotinylated human BCMA with His tag) (human) (UniProt Q02223)
Test: ELISA, periplasmic extract of scFv on biotinylated human BCMA-His

Row | Binder | PE ELISA Bio-huBCMA-His
1 | B1 | 1.1
2 | B2 | 0.516
3 | B3 | 1.11

Biological target: T1, human BCMA on BCMA overexpressing CHO …
Test: flow cytometry, periplasmic extract of scFv on cells with human BCMA

Row | Binder | PE FACS % Binding Hu BCMA [%]
4 | B4 | 47.2
5 | B5 | 89
6 | B6 | 54.6

Biological target: T2, Bio-cyBCMA-His (biotinylated cynomolgus BCMA with His tag) (cynomolgus, UniProt A0A2K5UD97 1-53, Biotinylated (site not stated); C- or N-terminal His tag not carried in the letters)
T2 construct: not shown: biotin label
Test: ELISA, periplasmic extract of scFv on biotinylated cynomolgus BCMA-His

T2 sequence (A0A2K5UD97 entry or part of it limits assumed, form in doubt): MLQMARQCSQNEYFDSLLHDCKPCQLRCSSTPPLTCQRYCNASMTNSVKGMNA

Row | Binder | PE Elisa Bio-cyBCMA-His
7 | B4 | 0.126
8 | B5 | 0.147
9 | B6 | 0.122
